Experimental data as given in the Immune Epitope Database (IEDB).

The sequences below were run against HLA-A*24:02 (assay: IEDB peptide-MHC binding, purified MHC/competitive/fluorescence; ≥ and ≤ were set here for values at or beyond the usual limits of such assays). Settings: source organism: Plasmodium falciparum.
In the case of YYRSSRGECI, the IC50 is reported as 0.175 µM.
IYKRELYNI showed an IC50 of 0.0868 µM.
EYPLHQEHTY gave an IC50 of 0.999 µM.
In the case of SYFTYDSEEY, the IC50 is reported as 22.3 µM.
In the case of AYLNKYVYTI, the IC50 is reported as 0.127 µM.
PFHKKFISFF was tested, and the IC50 was 0.0356 µM.
For QYLKDGGFAF, the IC50 was 0.0419 µM.
Sequence DFVIIPHYTF has an IC50 of 0.289 µM.
In the case of NYMGNPWTE, the IC50 is reported as 37.9 µM.
Work on NYKLGVQYFF yielded an IC50 of 26.3 µM.
With NFGRGQNYW the IC50 was 0.229 µM.
IFFNNENSI was tested, and the IC50 was 0.0569 µM.
For SYRYDISEEI, the IC50 was 0.363 µM.
YLNKYVYTI showed an IC50 of 0.135 µM.
In the case of DMKNYGTNLF, the IC50 is reported as 5.3 µM.
SYNSIYHKS was tested, and the IC50 was 57.7 µM.
Sequence KLPLESSTI has an IC50 of 0.214 µM.
IYIHLFILN was tested, and the IC50 was ≥ 142 µM.
For GYSTKAENKI, the IC50 was 1.84 µM.
In the case of GYNWGNYNTE, the IC50 is reported as ≥ 100 µM.
RYNLYDKKL showed an IC50 of 0.172 µM.
For IKLNIWRTF, the IC50 was 1.42 µM.
In the case of LTIIYIHLF, the IC50 is reported as 69.5 µM.
Work on AYVSCYRVSF yielded an IC50 of 0.0569 µM.
Work on PYISKYGNKL yielded an IC50 of 0.179 µM.
KYLFIPSHN gave an IC50 of 6.12 µM.
For IFHHLIYVL, the IC50 was 9.59 µM.
EYKDEYADI showed an IC50 of 2.1 µM.

Each sequence was assayed against HLA-A*01:01 in the same assay as above. Settings: source organism: Plasmodium falciparum.
DVSTLNDEY showed an IC50 of 52.2 µM.
IPDNDKNSNY was tested, and the IC50 was 14.7 µM.
NEDYKNVDY was tested, and the IC50 was 8.92 µM.
With NTNGIRYHY the IC50 was 4.38 µM.
For SIEIVERSNY, the IC50 was 12.1 µM.
For NSILIKPEKY, the IC50 was ≥ 109 µM.
Sequence FTYDSEEYY has an IC50 of 0.136 µM.
In the case of SIYHKSSTY, the IC50 is reported as ≥ 100 µM.
TLNDEYIVSY was tested, and the IC50 was ≥ 213 µM.
Work on LTPVATGNQY yielded an IC50 of 2.56 µM.
HLDFVIIPHY was tested, and the IC50 was ≥ 118 µM.
In the case of RTFKKMMDEY, the IC50 is reported as ≥ 100 µM.
HREHPKEYEY was tested, and the IC50 was 11.1 µM.
With DSCVPNTNEY the IC50 was ≥ 100 µM.
In the case of STDPHTNSNN, the IC50 is reported as ≥ 100 µM.
FLDYYKHLSY gave an IC50 of 0.646 µM.
DTDSNHTPSN gave an IC50 of 5.88 µM.
Sequence TSSLIKQNKY has an IC50 of 37.1 µM.
With SECDIGLIY the IC50 was ≥ 100 µM.
With NLFEQLSCY the IC50 was ≥ 100 µM.
With GEEDETHIY the IC50 was ≥ 261 µM.
For ASDQPKQYEQ, the IC50 was ≥ 126 µM.
NNEDYKNVDY gave an IC50 of 7.99 µM.
In the case of LTIIYIHLF, the IC50 is reported as ≥ 100 µM.
Work on ENDYAYLNKY yielded an IC50 of 42.2 µM.
Work on YIDTIKFIHK yielded an IC50 of 1.51 µM.
Sequence STCYGNRFNY has an IC50 of 54 µM.
STEEEKDDIK gave an IC50 of 6.83 µM.
With LSDTLQLHED the IC50 was ≥ 100 µM.
Sequence FNDVPIKMEY has an IC50 of 0.498 µM.
For NSIYHKSSTY, the IC50 was ≥ 100 µM.
Sequence LNDEYIVSY has an IC50 of 28.1 µM.
For NKNDDSYRY, the IC50 was 6.68 µM.

The sequences below were run against HLA-B*07:02 in the same assay as above. Settings: source organism: Plasmodium falciparum.
In the case of KVKDSWITL, the IC50 is reported as 0.458 µM.
In the case of RPYISKNDL, the IC50 is reported as 0.244 µM.
For FVLENGVCI, the IC50 was ≥ 284 µM.
With ITSDHLRQM the IC50 was ≥ 183 µM.
Work on IKKKLILTII yielded an IC50 of 44.1 µM.
In the case of RPNDCESVL, the IC50 is reported as 0.377 µM.
With LPSAKNNCEY the IC50 was ≥ 100 µM.
KPHECVCNKQ was tested, and the IC50 was ≥ 100 µM.
In the case of TIIYIHLFIL, the IC50 is reported as 13.7 µM.
With FITSDHLRQM the IC50 was ≥ 100 µM.
For KRASHTTPV, the IC50 was ≥ 100 µM.
In the case of MNRTFKKMM, the IC50 is reported as ≥ 100 µM.
With LPIKSTEEEK the IC50 was ≥ 100 µM.
With MDMKNYGTNL the IC50 was ≥ 100 µM.
For KSAFLPTGAF, the IC50 was ≥ 100 µM.
With HPYDINNKND the IC50 was ≥ 100 µM.
SPNDNINVT was tested, and the IC50 was 36.1 µM.
In the case of NPEDRNSNTL, the IC50 is reported as 2.7 µM.
For SPLNLQENEM, the IC50 was 22.4 µM.
In the case of RASHTTPVL, the IC50 is reported as 0.258 µM.
MIRIKKKLIL was tested, and the IC50 was ≥ 100 µM.
With KPECVCKENL the IC50 was ≥ 206 µM.
For LPLKIENREY, the IC50 was ≥ 100 µM.
In the case of MPKAVIGSSP, the IC50 is reported as ≥ 293 µM.
In the case of FPCSLYKDEI, the IC50 is reported as ≥ 100 µM.
With TPGPLDNTSE the IC50 was ≥ 100 µM.
Sequence CPRKNLQNA has an IC50 of 0.484 µM.
For LQKHGFHTM, the IC50 was ≥ 100 µM.
For KPEKYGNTTA, the IC50 was ≥ 836 µM.
IPFHKKFISF gave an IC50 of 21.9 µM.
FNRIEYHTKI was tested, and the IC50 was ≥ 100 µM.
For NPQQSVGENG, the IC50 was ≥ 100 µM.
